The experiment concerns the target T1, full-length human tau (hTau40) (human, UniProt P10636-8 1-441).
T1 construct: plasmid PT7CHT40; The same construct was used as monomer (no inducer) and as filaments or oligomers induced with 75 uM arachidonic acid; No tag removal is described; also called hTau40^m (incubated without inducer, monomeric); hTau40^ARA (incubated with arachidonic acid, filaments and oligomers); source: E. coli BL21, purified (boiled lysate, HIS-select Nickel resin)
The experiment in a line: ELISA; nondenaturing sandwich ELISA; Tau13 capture antibody, anti-EFhd2 detection antibody; 2 uM hEFhd2 and 2 uM hTau40 co-incubated overnight at room temperature without arachidonic acid (hTau40^m/hEFhd2), then diluted in 1X PBS. The note with it: both partners purified.

This is an account of results in publication PMC11100465, “EFhd2 co-aggregates with monomeric and filamentous tau in vitro” (Frontiers in Neuroscience, 2024).

T1 sequence (P10636 other isoform, or with tags, fused parts or gaps): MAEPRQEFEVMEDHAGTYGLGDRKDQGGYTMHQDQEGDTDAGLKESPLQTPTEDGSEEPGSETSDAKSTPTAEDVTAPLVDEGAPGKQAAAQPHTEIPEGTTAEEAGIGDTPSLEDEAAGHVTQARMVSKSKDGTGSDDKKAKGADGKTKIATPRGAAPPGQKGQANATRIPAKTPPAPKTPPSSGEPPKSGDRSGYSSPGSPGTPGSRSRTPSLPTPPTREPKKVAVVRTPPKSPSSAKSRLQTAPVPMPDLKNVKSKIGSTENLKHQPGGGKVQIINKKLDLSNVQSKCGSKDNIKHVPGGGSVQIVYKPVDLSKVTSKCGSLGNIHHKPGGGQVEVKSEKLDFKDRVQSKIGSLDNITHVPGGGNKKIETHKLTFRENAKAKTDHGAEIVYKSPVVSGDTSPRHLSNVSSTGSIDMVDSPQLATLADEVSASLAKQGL

B1: recombinant human EFhd2 (natural protein, UniProt Q96C19 1-240, looked up)
chain: MATDELATKLSRRLQMEGEGGGETPEQPGLNGAAAAAAGAPDEAAEALGSADCELSAKLLRRADLNQGIGEPQSPSRRVFNPYTEFKEFSRKQIKDMEKMFKQYDAGRDGFIDLMELKLMMEKLGAPQTHLGLKNMIKEVDEDFDSKLSFREFLLIFRKAAAGELQEDSGLCVLARLSEIDVSSEGVKGAKSFFEAKVQAINVSSRFEEEIKAEQEERKKQAEEMKQRKAAFKELQSTFK
notes: wild type human EFhd2; No tag removal is described; also called hEFhd2; EF-hand domain 2 protein; source: E. coli BL21 (DE3), purified (HIS-select Nickel resin)
In the case of B1, the binding result is reported as “binds”.
